Reference: EP4782466A1, “FUSION PROTEIN FOR INACTIVATING CORONAVIRUS AND USE THEREOF” (priority 2023, dated 2025)

How the values were obtained:
Assay in all cases: cell-based or functional assay
[1] = target: S protein of SARS-CoV-2 Omicron BA.2.75 (SARS-CoV-2 BA.2.75)
[2] = target: S protein of SARS-CoV-2 Omicron BF.7 (SARS-CoV-2 BF.7)
[3] = target: S protein of SARS-CoV-2 Omicron BA.2 (SARS-CoV-2 BA.2)
[4] = target: S protein of SARS-CoV-2 Omicron BA.2.2 (SARS-CoV-2 BA.2.2)
[5] = target: S protein of SARS-CoV-2 Omicron BQ.1 (SARS-CoV-2 BQ.1)
[6] = target: S protein of SARS-CoV-2 Delta (B.1.617.2) (SARS-CoV-2 Delta (B.1.617.2))
[7] = target: S protein of SARS-CoV-2 Beta (B.1.351) (SARS-CoV-2 Beta (B.1.351))
[8] = target: S protein of SARS-CoV-2 Omicron BA.1 (SARS-CoV-2 BA.1)
[9] = target: S protein of SARS-CoV-2 Gamma (P.1) (SARS-CoV-2 Gamma (P.1))
[10] = target: S protein of SARS-CoV-2 Omicron BA.5 (SARS-CoV-2 BA.5)
[11] = target: S protein of SARS-CoV-2 Omicron XBB (SARS-CoV-2 XBB)
[12] = target: S protein of SARS-CoV-2 Omicron BA.2.12.1 (SARS-CoV-2 BA.2.12.1)
[13] = target: S protein of SARS-CoV-2 Omicron BA.2.9 (SARS-CoV-2 BA.2.9)
[14] = target: S protein of SARS-CoV-2 Lambda (SARS-CoV-2 Lambda)
[15] = target: S protein of SARS-CoV-2 Omicron BA.3 (SARS-CoV-2 BA.3)
[16] = target: S protein of SARS-CoV-2 Omicron BA.4.6 (SARS-CoV-2 BA.4.6)
[17] = target: S protein of SARS-CoV-2 Alpha (B.1.1.7) (SARS-CoV-2 Alpha (B.1.1.7))

Substance	IC50, inhibition of pseudovirus infection (Caco-2, luciferase) [1] [nM]	IC50, inhibition of pseudovirus infection (Caco-2, luciferase) [2] [nM]	IC50, inhibition of pseudovirus infection (Caco-2, luciferase) [3] [nM]	IC50, inhibition of pseudovirus infection (Caco-2, luciferase) [4] [nM]	IC50, inhibition of pseudovirus infection (Caco-2, luciferase) [5] [nM]	IC50, inhibition of pseudovirus infection (Caco-2, luciferase) [6] [nM]	IC50, inhibition of pseudovirus infection (Caco-2, luciferase) [7] [nM]	IC50, inhibition of pseudovirus infection (Caco-2, luciferase) [8] [nM]	IC50, inhibition of pseudovirus infection (Caco-2, luciferase) [9] [nM]	IC50, inhibition of pseudovirus infection (Caco-2, luciferase) [10] [nM]	IC50, inhibition of pseudovirus infection (Caco-2, luciferase) [11] [nM]	IC50, inhibition of pseudovirus infection (Caco-2, luciferase) [12] [nM]	IC50, inhibition of pseudovirus infection (Caco-2, luciferase) [13] [nM]	IC50, inhibition of pseudovirus infection (Caco-2, luciferase) [14] [nM]	IC50, inhibition of pseudovirus infection (Caco-2, luciferase) [15] [nM]	IC50, inhibition of pseudovirus infection (Caco-2, luciferase) [16] [nM]	IC50, inhibition of pseudovirus infection (Caco-2, luciferase) [17] [nM]	further results
ACE2 protein alone (ACE2 peptidase domain alone) (from UniProt Q9BYF1 18-615) (receptor)	26.5	101	12.6	11.9	21.8	4.85	16.1	18.7	15.1	15.3	12.7	10.6	7.63	12.8	6.51	65.9	6.2	EC50, inactivation of pseudovirus (Caco-2, luciferase) [1]: 677 nM; EC50, inactivation of pseudovirus (Caco-2, luciferase) [2]: 192 nM; EC50, inactivation of pseudovirus (Caco-2, luciferase) [3]: 329 nM; EC50, inactivation of pseudovirus (Caco-2, luciferase) [4]: 476 nM; EC50, inactivation of pseudovirus (Caco-2, luciferase) [5]: 149 nM; EC50, inactivation of pseudovirus (Caco-2, luciferase) [6]: 605 nM; EC50, inactivation of pseudovirus (Caco-2, luciferase) [7]: 123 nM; EC50, inactivation of pseudovirus (Caco-2, luciferase) [8]: 82.2 nM; EC50, inactivation of pseudovirus (Caco-2, luciferase) [9]: 88.5 nM; EC50, inactivation of pseudovirus (Caco-2, luciferase) [10]: 336 nM; EC50, inactivation of pseudovirus (Caco-2, luciferase) [11]: 212 nM; EC50, inactivation of pseudovirus (Caco-2, luciferase) [12]: 76.1 nM; EC50, inactivation of pseudovirus (Caco-2, luciferase) [13]: 407 nM; EC50, inactivation of pseudovirus (Caco-2, luciferase) [14]: 116 nM; EC50, inactivation of pseudovirus (Caco-2, luciferase) [15]: 52.1 nM; EC50, inactivation of pseudovirus (Caco-2, luciferase) [16]: 1160 nM; EC50, inactivation of pseudovirus (Caco-2, luciferase) [17]: 243 nM
AL2E protein (ACE2-linker-EK1 fusion protein with (GGGGS)2 linker) (from UniProt Q9BYF1 18-615)	0.69	0.46	0.16	0.4	0.4	0.32	0.27	0.18	0.39	0.1	0.64	0.26	0.43	0.09	0.58	1.03	0.22	–
